Assays:
Assay in all cases: flow cytometry, protein L-biotin then streptavidin-PE on LV-transduced human primary T cells
[1] = target: CAR19 construct 1713 (LTG1713): SP-CD19binder-Truncated TNFRSF19link-TNFRSF19tm-signaling
Target sequence (chain, as listed by the source): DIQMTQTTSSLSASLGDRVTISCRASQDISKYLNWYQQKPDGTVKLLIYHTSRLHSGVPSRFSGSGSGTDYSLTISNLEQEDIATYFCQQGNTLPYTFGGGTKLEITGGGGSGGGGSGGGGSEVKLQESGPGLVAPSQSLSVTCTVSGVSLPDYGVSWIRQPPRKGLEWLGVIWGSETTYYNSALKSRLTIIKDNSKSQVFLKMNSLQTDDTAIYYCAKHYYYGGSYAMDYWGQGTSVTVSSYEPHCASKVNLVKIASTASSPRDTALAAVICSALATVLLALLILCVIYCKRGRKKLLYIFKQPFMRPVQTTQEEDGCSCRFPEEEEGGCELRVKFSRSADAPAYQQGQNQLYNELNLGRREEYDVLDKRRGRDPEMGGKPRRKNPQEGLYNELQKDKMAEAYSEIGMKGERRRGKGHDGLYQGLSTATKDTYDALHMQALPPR

[2] = target: CAR19 construct 1494 (LTG1494): SP-CD19binder-CD8link-CD8tm-signaling
Target sequence (chain, as listed by the source): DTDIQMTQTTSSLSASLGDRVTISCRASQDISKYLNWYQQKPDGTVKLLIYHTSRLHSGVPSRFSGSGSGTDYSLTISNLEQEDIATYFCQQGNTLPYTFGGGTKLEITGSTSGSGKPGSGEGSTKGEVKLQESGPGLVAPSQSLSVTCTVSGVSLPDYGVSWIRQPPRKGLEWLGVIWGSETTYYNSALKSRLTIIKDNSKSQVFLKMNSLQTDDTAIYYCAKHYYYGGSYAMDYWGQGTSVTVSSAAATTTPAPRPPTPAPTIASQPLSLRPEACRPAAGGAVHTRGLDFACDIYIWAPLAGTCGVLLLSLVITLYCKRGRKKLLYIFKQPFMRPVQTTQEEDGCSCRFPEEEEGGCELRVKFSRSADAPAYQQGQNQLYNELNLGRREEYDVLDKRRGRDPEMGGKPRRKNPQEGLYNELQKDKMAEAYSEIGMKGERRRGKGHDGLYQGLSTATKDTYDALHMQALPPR

[3] = target: CAR19 construct 1712 (LTG1712): SP-CD19binder-TNFRSF16link-TNFRSF16tm-signaling
Target sequence (chain, as listed by the source): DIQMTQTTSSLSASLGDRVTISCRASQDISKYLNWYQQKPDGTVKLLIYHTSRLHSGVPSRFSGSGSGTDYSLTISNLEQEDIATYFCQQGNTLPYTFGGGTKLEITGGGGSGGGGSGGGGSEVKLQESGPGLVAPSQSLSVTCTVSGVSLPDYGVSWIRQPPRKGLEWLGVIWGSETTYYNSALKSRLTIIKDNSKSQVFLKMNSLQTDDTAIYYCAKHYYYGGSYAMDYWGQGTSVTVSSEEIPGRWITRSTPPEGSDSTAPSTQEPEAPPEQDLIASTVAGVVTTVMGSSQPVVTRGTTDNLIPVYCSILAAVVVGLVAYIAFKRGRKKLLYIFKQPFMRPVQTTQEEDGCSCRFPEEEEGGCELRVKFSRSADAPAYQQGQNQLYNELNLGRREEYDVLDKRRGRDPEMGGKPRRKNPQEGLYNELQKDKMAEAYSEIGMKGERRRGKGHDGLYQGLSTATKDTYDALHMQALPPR

percentage CAR on T cell surface (cells stained) [1]: 0.3% | percentage CAR on T cell surface (cells stained) [2]: 90.4% | percentage CAR on T cell surface (cells stained) [3]: 86.4%
Substance: protein L-biotin conjugate

Source: patent US20180305452A1
